In the supplement of paper PMC9170038:

Tested on: MS2 coat protein
Experiment: apparent KD of MS2 coat protein; designed switch direction (-1 OFF switch, 1 ON switch): -1; higher = weaker reporter binding
Method in brief: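 Apparent KD, taken as the median over clusters for each design, was obtained by curve-fitting normalised cluster fluorescence. Designed RNA switches had been transcribed on Illumina chips by stalled E. coli RNA polymerase and titrated with SNAP-549-labelled MS2 coat protein, doubling from 0.7 or 1.5 nM to 3 µM.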

[1] = input ligand: microRNA oligo, concentration not stated
[2] = Eterna round: R95, input ligand: FMN 200 uM
[3] = Eterna round: R95, input ligand: microRNA oligo, concentration not stated
[4] = Eterna round: R95, input ligand: none

| Sequence | apparent KD of MS2 coat protein (input ligand: FMN 200 uM) | apparent KD of MS2 coat protein [1] | apparent KD of MS2 coat protein (input ligand: none) | apparent KD of MS2 coat protein [2] | apparent KD of MS2 coat protein [3] | apparent KD of MS2 coat protein [4] |
| --- | --- | --- | --- | --- | --- | --- |
| AGCUGUGGCCGAGGAUAUCUGUUCCAUAUAACCGACGUAUAGUCGGACAUGAGGAUCACCCAUGUAGAGAAGGCGGUCUCAGCA [Eli eng2 - 000] (Eterna round: R96, puzzle: Exclusion NG 2) | 0.0392 µM | 0.0233 µM | 0.0254 µM | – | – | – |
| GCCAGUGCAGGAUAUUCAAUAAUUCACAUGAGGAUCACCCAUGUCCAGCGAAAGCUGGAAGGAGAAGGGCACUGGC [Mat - Exclusion 5 - Eli mod - D85] (puzzle: Exclusion 5) | – | – | – | 0.0102 µM | 0.0128 µM | 0.0146 µM |
| UUAUACGCUGAGGAUAUCAUCACUGAGAGGUGAUGAGAAGGCGGUACAUGAGGAUCACCCAUGUCUAUGGGCAG [Ex-6 Malc#21] (puzzle: Exclusion 6) | – | – | – | – | 0.187 µM | – |
| GUUAACGUAGGAUAUUAGUACAUGAACAUGAGGAUCACCCAUGUGAGGUGGGUCUUAGAUUAAGAAGGGCGAAGAA [EX5 #30] (Eterna round: R97, puzzle: Exclusion 5) | 0.525 µM | – | 0.867 µM | – | – | – |
| UAUUAGUAAGGAUAUGAGACGUAGGACUAAUGUCCUACGUCUCAGAAGGUACAUGAGGAUCACCCAUGUUUAUU [Mod of Fisker 8 - Jieux - Exclusion 4] (Eterna round: R97, puzzle: Exclusion 4) | 0.0235 µM | – | 0.0193 µM | – | – | – |
| AGUCAGGCGGUAGGAUAUCCAAAUCGAGUGACCCUCUCAUAACAUGAGGAUCACCCAUGUCGGUGGGAGAAGGGCCGUACGGCG [JL ViennaUCT Atra mod] (Eterna round: R96, puzzle: Exclusion NG 2) | 0.108 µM | 0.0538 µM | 0.0478 µM | – | – | – |
| CAUGAUCUUCGGAUCAUGUACAUGAGGAUCACCCAUGUGACGAGUUGAUCCUCAAACAAGCUUUUUGCUCGUCUUAU [Sensor v3 - Turn-off variant 1 - 18] (puzzle: Sensor v3, turn-off variant 1) | – | – | – | 0.017 µM | 0.0106 µM | 0.0175 µM |
| GCGAGAUGAGGAUAUUAGUGGAAUGACAUGAGGAUCACCCAUGUUACGCAUGUCGAGCUUUGAGAAGGCAUUACGA [Eternabot (L2) Solution 75] (Eterna round: R97, puzzle: Exclusion 5) | 0.0262 µM | – | 0.0313 µM | – | – | – |
| AAAUACAAGUAAAGGUUCUACAUGAGGAUCACCCAUGUGCUCGUCUUAUAAAGUACUAUCACGAAAGUGAUAGUACA [Sensor 3, v1 - 39] (puzzle: Sensor v3, turn-off variant 1) | – | – | – | 0.0192 µM | 0.0925 µM | 0.016 µM |
| UGAGAACAUGAGGAUCACCCAUGUAAGGAUAUGCGAAGAGUUCGGAGAGGUUGAGGAGGCAGAAGGUACGGGAG [JR_Exclu1_Sub044] (puzzle: Exclusion 1) | – | – | – | 0.0375 µM | 0.0325 µM | 0.0498 µM |
| UAGAUGGGAGGAUAUGCGUAGAUACGGAUUCGUGUGGUGCUACAUGAGGAUCACCCAUGUAGAAGGCCCGUCUU [JL-ex2-2.27 Mayanne mod] (puzzle: Exclusion 2) | – | – | – | – | 0.012 µM | – |
| UGUUGUUCAGGAUAUGAUGUAUAAUACAUGAGGAUCACCCAUGUAGAUCCUGAAUUAACAUCAGAAGGGAAUAUUG [salish99_ex5_r4_101] (Eterna round: R97, puzzle: Exclusion 5) | 0.019 µM | – | 0.017 µM | – | – | – |
| CAGUACUGAGGAUAUACAUGAGGAUCACCCAUGUGUUCCAGCUAGGAAAGUAGCAAAAGUAGAAGGCAGUACUG [salish99_ex3_r3_072] (puzzle: Exclusion 3) | – | – | – | 0.291 µM | 0.0267 µM | 0.0216 µM |
| AAUACAAGCUAUUGAUCCCACAUGAGGAUCACCCAUGUAGCUGGCGGUGACACCUCCUUUACGAUAGCUCGUCUUAU [Sensor-V1 #55] (Eterna round: R97, puzzle: Sensor, turn-off variant 1) | 0.604 µM | – | 1.2 µM | – | – | – |
| AAAUUGUGAGGAUAUUAGUUGUACGUCAAUAGACGUAUAAGUGAGAAGGCACAUGAGGAUCACCCAUGUUCCUG [Omei Ex4 Mod of Mat's R95 mod of Omei] (Eterna round: R97, puzzle: Exclusion 4) | 0.0618 µM | – | 0.0168 µM | – | – | – |
| AGGCGGAAAGUAAGGAUAUCUUGACCAAAGGGUUGAGAGAAGGUACAUGAGGAUCACCCAUGUGGUGACCGCCA [Morphing Claw (Vienna)] (Eterna round: R97, puzzle: Brourd's mod of Exclusion 4) | 0.228 µM | – | 0.685 µM | – | – | – |
| AAUAAAUAAGCAGGAUCCUACAUGAGGAUCACCCAUGUGCUCGUCUUAUAAAGUACUAUCACGAAAGUGAUAGUACA [Mat - Sensor v3 - turn-off var 1 - Eli Mod - D75] (puzzle: Sensor v3, turn-off variant 1) | – | – | – | 0.115 µM | 0.103 µM | 0.145 µM |

| Sequence | apparent KD of MS2 coat protein (input ligand: FMN 200 uM) | apparent KD of MS2 coat protein [1] | apparent KD of MS2 coat protein (input ligand: none) | apparent KD of MS2 coat protein [2] | apparent KD of MS2 coat protein [3] | apparent KD of MS2 coat protein [4] |
| --- | --- | --- | --- | --- | --- | --- |
| GUGGGCUUUUAGGUUCUUAACAUGAGGAUCACCCAUGUGCUUGUCUUGCUGGCUGGCGGGUCGUCGGUCGGGCUUGU (Eterna round: R97, puzzle: Sensor, turn-off variant 1) | 0.489 µM | – | 0.584 µM | – | – | – |
| UAAAUAAGUGUGAGGAUAUGCUGGUCCUUGGAUCAGCAGAAGGCACAUGAGGAUCACCCAUGUAAUAUAUUUAU [Mat - Exclusion 4 - JL Mod - D61] (puzzle: Brourd's mod of Exclusion 4) | – | – | – | – | 0.0681 µM | – |
| CUCCUCAUGACGCCUAAAGACAUGAGGAUCACCCAUGUACAGGCUUUUUGUCGUCUUAUAAUAAAACCGAGGAUGCG [Edmate] (puzzle: Sensor v3, turn-off variant 1) | – | – | – | 0.0192 µM | 0.0459 µM | 0.0201 µM |
| AAAAAGGUAGGAUAUACGAAAAAAAAGGGUAGAAAAAAAACACAUGAGGAUCACCCAUGUAGAAGGACCAAAAU [salish99_ex2_r3_044] (puzzle: Exclusion 2) | – | – | – | 0.0828 µM | 0.0353 µM | 0.0366 µM |
| AGUACUAACACGAAAGUGUUAGUACUAUAAGCUUGUGUUACAUGAGGAUCACCCAUGUCCUCAUAAGCUCGUCUUGU [Mat - Sensor v3 - Turn-off var 2 - D104] (puzzle: Sensor v3, turn-off variant 2) | – | – | – | 0.0464 µM | 0.0487 µM | 0.0544 µM |
| AAGUACCGUCACGAUAGUGAUGGUACAACAAGUAAAUGUACAUGAGGAUCACCCAUGUCCUCUUUUGCUCGUCUUAU [Sensor 3 - 91] (puzzle: Sensor v3, turn-off variant 2) | – | – | – | 0.144 µM | 0.033 µM | 0.166 µM |
| UUAAUUAAUUAAGCGCAAGAUCACAUGAGGAUCACCCAUGUAUAGGAUAUCAGCUCGAUUAGAGCUGAGAAGGAUACAUAGCGC [ExNG3/2-A1] (Eterna round: R96, puzzle: Exclusion NG 3) | – | 0.185 µM | – | – | – | – |
| CCGCAAAAGCAGGAUAUCGUAUCGGAUACGAUACGAGAAGGGCUAACAUGAGGAUCACCCAUGUGUCCUAGCGG [Fiskers Ex 6 - 38] (puzzle: Exclusion 6) | – | – | – | – | 0.0154 µM | – |
| GAUCAUGCAGGAUAUACAGUAUCCAUGAAAACAUGGAUCAAACAUGAGGAUCACCCAUGUAGAAGGGCAUGAUC [Omei Ex2 A23] (Eterna round: R97, puzzle: Exclusion 2) | 0.0191 µM | – | 0.0179 µM | – | – | – |
| UCUGGUCGAGGAUAUACAUGAGGAUCACCCAUGUAGAUCAACCAGCUUCGGCUGGAAUGUAGAAGGCGACCAGA [E3/5-A6] (Eterna round: R97, puzzle: Exclusion 3) | 0.149 µM | – | 0.0198 µM | – | – | – |
| GCCACAGCAGGAUAUUCAAUAAUUCACAUGAGGAUCACCCAUGUCGAGCGAAAGCUCGAGGGAGAAGGGCUGUGGC [Mat - Exclusion 5 - Eli mod - D88] (puzzle: Exclusion 5) | – | – | – | – | 0.0344 µM | – |
| UCCUGACAUGAGGAUCACCCAUGUUAGGAUAUAACAUUUGACGCGACAGUGUGGAGUGUUAGAAGGGAUGUGGG [-29.5, -26.8 kcal, A 27%] (Eterna round: R97, puzzle: Exclusion 1) | 0.0205 µM | – | 0.0174 µM | – | – | – |
| AAUAAGUGAGGAUAUGCGUCUGGUCCCGGGAGGGCUAUAUAACAUGAGGAUCACCCAUGUAGAAGGCACAAUAA [Excls2IV] (puzzle: Exclusion 2) | – | – | – | – | 0.0152 µM | – |
| UGCUAGUCAGGAUAUACGAACAUGUCAAAAGACGUGAAGGGACAUGAGGAUCACCCAUGUAGAAGGGACUAGCG [salish99_ex2_r3_007] (puzzle: Exclusion 2) | – | – | – | 0.144 µM | 0.0272 µM | 0.0279 µM |
| UUGGAUAAUGUAGGAUAUGCAAGGCGAACCUAAGCAGAAGGACAUGAGGAUCACCCAUGUAAUGCGGUCUGCGUACAGAUCGCA [12th something] (Eterna round: R96, puzzle: Exclusion NG 1) | 0.079 µM | 0.029 µM | 0.0221 µM | – | – | – |
| CAAUUCCGAGGAUAUACAUGAGGAUCACCCAUGUCGGGCCUCAGCGUUUAGCGCGUAAGUAGAAGGUGGGUUUC [JL Riri mod 6] (puzzle: Exclusion 3) | – | – | – | – | 0.0295 µM | – |
| UGACGGAUAGGAUAUGUAUCGCCUGACAUGAGGAUCACCCAUGUGGUUCAUAAGUUGCCAACAGAAGGAUCAGAAA [Eternabot (L1) Solution 60] (Eterna round: R97, puzzle: Exclusion 5) | 0.129 µM | – | 0.18 µM | – | – | – |
